Article PMC3784611 (Biochemistry, 2013)

B1: myristoylated recoverin spin-labeled only at Cys39 (natural protein, bovine)
chain: GNSKSGALSKEILEELQLNTKFTEEELSSWYQSFLKECPSGRITRQEFQTIYSKFFPEADPKAYAQHVFRSFDANSDGTLDFKEYVIALHMTSAGKTNQKLEWAFSLYDVDGNGTISKNEVLEIVTAIFKMISPEDTKHLPEDENTPEKRAEKIWGFFGKKDDDKLTEKEFIEGTLANKEILRLIQFEPQKVKEKLKEKKL
modifications: N-terminal myristoyl group; nitroxide spin label at the native cysteine C39

Key:
[1] = molecular target: unmyristoylated recoverin (bovine) (UniProt P21457); experiment: NMR pulsed-field gradient diffusion
[2] = molecular target: unmyristoylated recoverin (bovine) (UniProt P21457); experiment: 15N NMR relaxation
[3] = molecular target: the molecule itself; experiment: CW-EPR line shape

Row | Molecule | stoichiometry N [1] | stoichiometry N [2] | stoichiometry N [3]
1 | unmyristoylated recoverin (from UniProt P21457 1-202) (natural protein) | 2 | 2 | 
2 | B1 |  |  | 2
